Publication PMC4067145
Read-outs that look alike come from different tables or passages of the source.

Assays:
Assay in all cases: ITC
[1] = target: human U2A′ protein, truncated form that included the first 180 amino acids (LRR domain) (human) (UniProt P09661)
[2] = target: human U2A′ protein, truncated form that included the first 180 amino acids (LRR domain) (human) (UniProt P09661); remark: listed apart in the source
[3] = target: human U2A′ protein, truncated form that included the first 180 amino acids (LRR domain) (human) (UniProt P09661); remark: listed apart in the source

Sequence of full-length human U1A protein (P09012 whole entry): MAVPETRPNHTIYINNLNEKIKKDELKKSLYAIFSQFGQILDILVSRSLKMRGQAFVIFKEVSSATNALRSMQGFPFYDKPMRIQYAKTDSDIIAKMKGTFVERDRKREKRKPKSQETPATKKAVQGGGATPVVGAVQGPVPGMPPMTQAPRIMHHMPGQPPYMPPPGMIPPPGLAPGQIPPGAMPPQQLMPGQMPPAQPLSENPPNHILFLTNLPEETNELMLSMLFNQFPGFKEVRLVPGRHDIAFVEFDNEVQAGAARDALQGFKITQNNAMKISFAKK
Sequence of human U2A′ protein, truncated form that included the first 180 amino acids (LRR domain) (human) (P09661 1-180): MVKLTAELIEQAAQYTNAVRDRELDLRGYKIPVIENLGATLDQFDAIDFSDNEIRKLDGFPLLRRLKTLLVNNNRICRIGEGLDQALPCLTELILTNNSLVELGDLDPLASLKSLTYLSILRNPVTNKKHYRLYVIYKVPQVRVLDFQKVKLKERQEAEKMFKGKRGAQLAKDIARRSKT

full-length human U1A protein (from UniProt P09012 1-282) (natural protein)
dH [1]: 2.9 kcal/mol
dH [2]: 2 kcal/mol
dH [3]: 2.8 kcal/mol
